Data on ten molecules can be found in patent publication US20260207766A1 (Bristol-Myers Squibb, published 2026).

One may read the EC50 as the concentration that produces a half-maximal response. As a reminder, the Kd is a measure of binding affinity in units of concentration. Broadly, the koff is the rate constant with which the complex falls apart. The kon is the rate constant with which the complex forms.

T1: human CEACAM5 on cells (human, UniProt P06731 35-685)
T1 construct: Endogenous on MKN45, Ls174T, BxPC-3; overexpressed on HCT116; also called huCEACAM5; HCT116-huCEACAM5
T1 sequence: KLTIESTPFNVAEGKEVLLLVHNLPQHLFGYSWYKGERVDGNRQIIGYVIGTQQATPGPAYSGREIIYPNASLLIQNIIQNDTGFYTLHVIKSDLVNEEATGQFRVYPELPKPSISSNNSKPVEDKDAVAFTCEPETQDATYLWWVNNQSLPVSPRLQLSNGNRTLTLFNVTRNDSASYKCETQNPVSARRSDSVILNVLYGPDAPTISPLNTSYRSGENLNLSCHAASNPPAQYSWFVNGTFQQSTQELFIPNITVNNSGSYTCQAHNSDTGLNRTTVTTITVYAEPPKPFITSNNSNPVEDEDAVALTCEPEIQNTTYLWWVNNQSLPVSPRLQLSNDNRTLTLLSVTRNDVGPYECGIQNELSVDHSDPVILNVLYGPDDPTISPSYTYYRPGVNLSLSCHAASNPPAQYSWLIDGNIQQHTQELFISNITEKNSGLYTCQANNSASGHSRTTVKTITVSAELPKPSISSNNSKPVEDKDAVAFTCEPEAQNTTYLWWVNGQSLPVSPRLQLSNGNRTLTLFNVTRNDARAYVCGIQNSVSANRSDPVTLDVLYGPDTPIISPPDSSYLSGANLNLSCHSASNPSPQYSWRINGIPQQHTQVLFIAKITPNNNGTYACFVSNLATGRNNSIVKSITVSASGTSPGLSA

T2: human CEACAM1 on CHO-S cells (human, UniProt P13688 35-526)
T2 construct: whole, on cells; also called CHO-S-huCEACAM1
T2 sequence (looked up): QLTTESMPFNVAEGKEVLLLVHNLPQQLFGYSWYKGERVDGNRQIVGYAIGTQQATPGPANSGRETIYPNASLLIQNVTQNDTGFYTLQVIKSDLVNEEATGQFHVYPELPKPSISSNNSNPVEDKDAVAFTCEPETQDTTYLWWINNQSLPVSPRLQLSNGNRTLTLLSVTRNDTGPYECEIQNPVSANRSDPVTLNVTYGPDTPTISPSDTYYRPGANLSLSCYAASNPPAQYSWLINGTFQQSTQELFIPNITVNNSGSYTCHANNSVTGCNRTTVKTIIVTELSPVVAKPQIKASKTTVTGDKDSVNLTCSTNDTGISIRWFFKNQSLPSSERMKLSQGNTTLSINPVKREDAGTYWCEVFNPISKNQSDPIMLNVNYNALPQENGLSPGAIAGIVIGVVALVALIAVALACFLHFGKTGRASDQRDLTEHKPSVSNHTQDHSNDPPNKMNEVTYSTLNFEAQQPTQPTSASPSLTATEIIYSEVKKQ

T3: human CEACAM6 on HCT116 cells (human, UniProt P40199 35-320)
T3 construct: whole, on cells; also called HCT116-huCEACAM6
T3 sequence (looked up): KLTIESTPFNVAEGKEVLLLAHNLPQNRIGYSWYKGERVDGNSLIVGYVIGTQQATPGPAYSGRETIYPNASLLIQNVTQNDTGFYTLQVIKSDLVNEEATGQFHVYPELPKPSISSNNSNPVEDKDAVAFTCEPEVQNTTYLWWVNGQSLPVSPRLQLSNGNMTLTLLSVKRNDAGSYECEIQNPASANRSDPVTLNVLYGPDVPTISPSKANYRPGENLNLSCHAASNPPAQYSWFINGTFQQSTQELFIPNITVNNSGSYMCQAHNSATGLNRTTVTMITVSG

T4: full-length human CEACAM5 (recombinant, internally generated) (human, UniProt P06731 35-685, limits assumed)
T4 construct: Printed only as 'full-length'; also called Full-length huCEACAM5; biotinylated human CEACAM5
T4 sequence: T1 sequence

T5: human CEACAM8 (R&D Systems catalog #9639-CM-050) (human, UniProt P31997 35-320, limits assumed)
T5 sequence (looked up): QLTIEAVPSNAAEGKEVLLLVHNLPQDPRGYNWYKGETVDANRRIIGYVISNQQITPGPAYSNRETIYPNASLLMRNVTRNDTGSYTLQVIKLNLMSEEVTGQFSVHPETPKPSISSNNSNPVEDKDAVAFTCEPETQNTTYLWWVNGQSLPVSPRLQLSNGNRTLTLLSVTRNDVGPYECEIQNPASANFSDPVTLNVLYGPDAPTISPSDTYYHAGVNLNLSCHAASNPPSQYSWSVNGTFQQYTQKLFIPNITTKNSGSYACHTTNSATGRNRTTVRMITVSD

T6: human CEACAM7 (R&D Systems catalog #9010-CM-050) (human, UniProt Q14002 36-242, limits assumed)
T6 sequence (looked up): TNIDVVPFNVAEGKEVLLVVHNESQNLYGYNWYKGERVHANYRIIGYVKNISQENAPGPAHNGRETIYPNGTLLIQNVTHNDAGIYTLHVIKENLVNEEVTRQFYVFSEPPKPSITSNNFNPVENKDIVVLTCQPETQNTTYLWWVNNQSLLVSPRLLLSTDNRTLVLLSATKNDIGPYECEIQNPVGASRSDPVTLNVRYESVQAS

B1: MBP003 (antibody, V domains shown)
VH: QVQLVESGGGVVQPGRSLRLSCAASGITFSSHGMHWVRQAPGKGLEWVTFISYDGSYKSYVDSVKGRFTISRDNSKNTLYLQMNSLRAEDTAVYYCATGLTGTGAFDIWGQGTMVTVSS
VL: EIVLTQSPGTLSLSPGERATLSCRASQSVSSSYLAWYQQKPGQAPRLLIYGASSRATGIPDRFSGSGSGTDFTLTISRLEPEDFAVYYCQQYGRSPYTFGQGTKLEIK
notes: also called hIgG1 form of MBP004
B2: MBP002 (antibody, IgG1, V domains shown)
VH: B1 VH with G104N, F106L
VL: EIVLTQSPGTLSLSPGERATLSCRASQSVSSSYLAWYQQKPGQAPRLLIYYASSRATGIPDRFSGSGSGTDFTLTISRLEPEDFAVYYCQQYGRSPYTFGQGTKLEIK
notes: also called hIgG1 form of MBP008
B3: MBP004 (antibody, V domains shown)
VH: B1 VH
VL: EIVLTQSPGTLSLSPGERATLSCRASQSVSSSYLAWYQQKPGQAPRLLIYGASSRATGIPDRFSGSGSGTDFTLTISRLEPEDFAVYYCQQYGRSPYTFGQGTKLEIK
B4: MBP008 (antibody, IgG1, V domains shown)
VH: B1 VH with G104N, F106L
VL: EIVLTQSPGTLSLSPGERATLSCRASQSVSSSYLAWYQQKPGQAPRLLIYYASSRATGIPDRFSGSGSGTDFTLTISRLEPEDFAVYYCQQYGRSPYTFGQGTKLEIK
B5: MBP006 (antibody, V domains shown)
VH: B1 VH with K58I, F106N
VL: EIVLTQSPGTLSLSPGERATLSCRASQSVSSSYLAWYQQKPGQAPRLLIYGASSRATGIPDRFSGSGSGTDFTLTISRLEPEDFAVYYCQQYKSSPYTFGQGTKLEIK
B6: MBP007 (antibody, IgG1, V domains shown)
VH: B1 VH with T28Y, F106N
VL: EIVLTQSPGTLSLSPGERATLSCRASQSVSSSYLAWYQQKPGQAPRLLIYGASSRATGIPDRFSGSGSGTDFTLTISRLEPEDFAVYYCQQNKPSPYTFGQGTKLEIK
B7: MBP010 (antibody, IgG1, V domains shown)
VH: B1 VH with G55S
VL: B6 VL with P94R
B8: MBP011 (antibody, IgG1, V domains shown)
VH: B1 VH with Y57I
VL: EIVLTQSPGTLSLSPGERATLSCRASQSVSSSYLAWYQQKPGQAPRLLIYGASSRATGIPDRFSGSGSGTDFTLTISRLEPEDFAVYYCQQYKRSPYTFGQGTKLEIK
B9: MBP009 (antibody, IgG1, V domains shown)
VH: B1 VH with T28Y
VL: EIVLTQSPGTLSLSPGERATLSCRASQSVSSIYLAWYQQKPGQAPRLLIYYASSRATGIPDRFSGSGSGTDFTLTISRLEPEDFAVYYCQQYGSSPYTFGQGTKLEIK
B10: MBP005 (antibody, V domains shown)
VH: B1 VH with T28Y
VL: not shown

Substitutions are numbered along the chain they refer to.

One test addresses T1, human CEACAM5 on cells. The test is described as follows: FACS on BxPC3 cells.
B1: the EC50 worked out at 1.9 nM.
B2: the EC50 came to 1.9 nM.

The target of a further test is T2, human CEACAM1 on CHO-S cells. The test is described as follows: flow cytometry on CHO-S (CEACAM-1) cells.
On to B1, for which the binding result was “no binding (tested: 300 nM)”.
Turning to B2, the binding result was “no binding (tested: 300 nM)”.

The target of the next test is T3, human CEACAM6 on HCT116 cells. As to the kind of experiment: flow cytometry on HCT-116 (CEACAM-6) cells. On the technique in general: In flow cytometry, cells or beads pass a laser one at a time.
Consider B1, for which the binding result is recorded as “no binding (tested: 300 nM)”.
As to B2, the binding result is reported as “no binding (tested: 300 nM)”.

A further test concerns the target T1, human CEACAM5 on cells. The test is described as follows: cell-based or functional assay.
As to B1, the “Ls174T 5-day cytotoxicity (AUC), antibody conjugated to Compound A'” value amounted to 18500 and the “MKN45 5-day cytotoxicity (AUC), antibody conjugated to Compound A'” value was 24400.
With B3, the “Ls174T 5-day cytotoxicity (AUC)” value was 865 and the “MKN45 5-day cytotoxicity (AUC)” value is 2380.
The corresponding values for B4 are 1140 and 2200.
On to B2, for which the “Ls174T 5-day cytotoxicity (AUC), antibody conjugated to Compound A'” value is 18900 and the “MKN45 5-day cytotoxicity (AUC), antibody conjugated to Compound A'” value came out at 24100.
For B5, the “Ls174T 5-day cytotoxicity (AUC)” value worked out at 902 and the “MKN45 5-day cytotoxicity (AUC)” value turned out to be 2440.
B6: the “Ls174T 5-day cytotoxicity (AUC)” value amounted to 834 and the “MKN45 5-day cytotoxicity (AUC)” value was found to be 2070.
The corresponding values for B7 are 910 and 1360.
The corresponding values for B8 are 939 and 1770.
The corresponding values for B9 are 1040 and 2200.
Take B10: the “Ls174T 5-day cytotoxicity (AUC)” value turned out to be 964 and the “MKN45 5-day cytotoxicity (AUC)” value came to 2350.

The target in a further test is T4, full-length human CEACAM5 (recombinant, …). The test is described as follows: SPR Biacore, mAb captured on anti-human Fc, full-length antigen analyte, 1:1 fit. The text has this:
The BIACORE® instrument was primed with 1×HBSP+ running buffer (Cytiva catalog no. BR100671). The CM5 chip (Cytiva catalog no. 29149604) was equilibrated to room temperature, and the BIACORE® instrument was re-primed. A human antibody Fc capture kit (Cytiva catalog no. 29234600) was utilized for this analysis. The human antibody Fc capture reagent was immobilized to both flow cells in all 8 flow channels of the CM5 chip via amine-coupling using the following conditions. Immobilization was performed at a temperature of 25° C. The anti-human Fc capture reagent was diluted to a concentration of 25 μg/mL in acetate pH5 buffer. The chip surface was activated by injecting a mixture of 1-ethyl-3-(-3-dimethylaminopropyl) carbodiimide hydrochloride (EDC) and N-hydroxy succinimide (NHS) for 420 seconds at a rate of 10 microliters per minute (uL/min). A concentration (25 ug/mL) of anti-human Fc capture reagent was then injected on the surface for 420 seconds at a rate of 10 uL/min. The remaining chip surface was blocked by injecting ethanolamine for 420 seconds at a rate of 10 uL/min.
The SPR kinetics against full-length human and cyno CEACAM5 were set up as follows. The antibody capture was performed by diluting the antibodies to a concentration of 10 nM in HBSP+ buffer. The 10 nM mAbs were captured for 20 seconds at 5 uL/min to achieve capture levels of approximately 100 RU. […] The association rate was 180 seconds at 30 uL/min. The dissociation rate was 600 seconds at 30 uL/min. Regeneration was performed using two injections of 3M magnesium chloride MgCl₂ for 30 seconds at 30 uL/min. A data fit was performed using a 1:1 binding model with global Rmax. Rmax reflects the maximal response when all ligand is occupied.
For orientation: Surface plasmon resonance follows binding to a sensor surface in real time, without labels.
Take B1: the Kd worked out at 23.4 nM, the koff was determined as 0.000982 s⁻¹ and the kon amounted to 42000 M⁻¹ s⁻¹.
Turning to B3, the Kd was determined as 17.3 nM, the koff was 0.00131 s⁻¹ and the kon was found to be 76000 M⁻¹ s⁻¹.
Consider B4, for which the Kd was found to be 5.91 nM, the koff turned out to be 0.000527 s⁻¹ and the kon came to 89200 M⁻¹ s⁻¹.
Taken in the same sequence, the figures for B2 were 5.26 nM, 0.000228 s⁻¹ and 43300 M⁻¹ s⁻¹.
B5: the Kd was found to be 6.03 nM, the koff was 0.000513 s⁻¹ and the kon worked out at 85100 M⁻¹ s⁻¹.
As to B6, the Kd amounted to 21.5 nM, the koff was 0.00171 s⁻¹ and the kon was 79600 M⁻¹ s⁻¹.
Taken in the same sequence, the figures for B7 were 20.4 nM, 0.00102 s⁻¹ and 50000 M⁻¹ s⁻¹.
Taken in the same sequence, the figures for B8 were 14.2 nM, 0.000671 s⁻¹ and 47100 M⁻¹ s⁻¹.
For the molecule B9, the Kd stood at 2.78 nM, the koff amounted to 0.00048 s⁻¹ and the kon stood at 172000 M⁻¹ s⁻¹.

In a further test the target is T5, human CEACAM8 (R&D Systems catalog …). The test is described as follows: SPR.
As for B1, the binding result is on record as “no binding”.
B2: the binding result is given as “no binding”.

The target of the next test is T6, human CEACAM7 (R&D Systems catalog …). As to the kind of experiment: SPR.
With B1, the binding result is “no binding”.
Still for that read-out and setting: for B2 the value was “no binding”.

For a further test, the target named is T1, human CEACAM5 on cells. As to the kind of experiment: FACS on LS174T cells.
For B1, the EC50 worked out at 1.7 nM.
Molecule B2 yielded an EC50 of 1.5 nM.

The next test addresses T1, human CEACAM5 on cells. As to the kind of experiment: FACS on MKN45 cells.
For B1, the response was half-maximal at 2.4 nM (EC50).
In the case of B2, the EC50 came to 2.1 nM.
